Data from patent publication US20190023739A1 (TOKUSHIMA UNIVERSITY, published 2019).

Biological target: T1, His-tagged recombinant PHB2 (UniProt Q99623 1-299, limits assumed)
T1 construct: also called prohibitin 2; REA; not shown: His tag
Assay: surface plasmon resonance (BiAcore) interaction analysis

T1 sequence (Q99623 whole entry): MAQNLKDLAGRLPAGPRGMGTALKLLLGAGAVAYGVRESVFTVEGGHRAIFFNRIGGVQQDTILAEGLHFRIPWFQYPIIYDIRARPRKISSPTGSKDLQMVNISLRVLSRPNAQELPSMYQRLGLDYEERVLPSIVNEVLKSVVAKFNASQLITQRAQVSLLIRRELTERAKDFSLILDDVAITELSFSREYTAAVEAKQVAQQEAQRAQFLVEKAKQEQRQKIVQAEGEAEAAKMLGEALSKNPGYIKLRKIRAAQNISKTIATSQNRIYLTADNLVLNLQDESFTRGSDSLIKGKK

B1: 11R-ERAP (11R-GGG-QMLSDLTLQLRQR) (peptide)
peptide: RRRRRRRRRRRGGGQMLSDLTLQLRQR
notes: Unstapled control peptide, synthesized as in Yoshimaru et al. 2013; also called dominant negative peptide
- Kd: 12.8 µM
